Measured values: the Human Domainome abundance scans (Beltran et al. 2025)
± gives the uncertainty stated by the source.

B1: Far upstream element-binding protein 1, residues 98 to 169; numbered along this chain, Q96AE4 (parent)
chain: RSVMTEEYKVPDGMVGFIIGRGGEQISRIQQESGCKIQIAPDSGGLPERSCMLTGTPESVQSAKRLLDQIVE

Variants of: B1
Experiment: abundance fitness (aPCA) (normalised: wild type 0, dead -1); higher = more abundant; growth selection in yeast, the domain comes from the species named
Settings: Homo sapiens

Variant | abundance fitness
RSVMTEEYKVPDGMVGFIIGRGGEQISRIQQESGCKIQIAPDSGGLPERSCMLTGWPESVQSAKRLLDQIVE | -0.154 ± 0.034
RSVMTEEYKVPDGMVGFIIGRGGEQISRIQQESGCKIQIAPDSGGLPERSCMLTGGPESVQSAKRLLDQIVE | -0.091 ± 0.024
RSVMTEEYKVPDGMVGFIIGRGGEQISRIQQESGCKIQIAPDSGGLPERSCMLTGQPESVQSAKRLLDQIVE | -0.042 ± 0.041
RSVMTEEYKVPDGMVGFIIGRGGEQISRIQQESGCKIQIAPDSGGLPERSCMLTGFPESVQSAKRLLDQIVE | -0.087 ± 0.045
RSVMTEEYKVPDGMVGFIIGRGGEQISRIQQESGCKIQIAPDSGGLPERSCMLTGDPESVQSAKRLLDQIVE | -0.067 ± 0.037
RSVMTEEYKVPDGMVGFIIGRGGEQISRIQQESGCKIQIAPDSGGLPERSCMLTGRPESVQSAKRLLDQIVE | -0.058 ± 0.025
RSVMTEEYKVPDGMVGFIIGRGGEQISRIQQESGCKIQIAPDSGGLPERSCMLTGKPESVQSAKRLLDQIVE | -0.027 ± 0.036
RSVMTEEYKVPDGMVGFIIGRGGEQISRIQQESGCKIQIAPDSGGLPERSCMLTGEPESVQSAKRLLDQIVE | -0.036 ± 0.032
RSVMTEEYKVPDGMVGFIIGRGGEQISRIQQESGCKIQIAPDSGGLPERSCMLTGYPESVQSAKRLLDQIVE | -0.066 ± 0.056
RSVMTEEYKVPDGMVGFIIGRGGEQISRIQQESGCKIQIAPDSGGLPERSCMLTGSPESVQSAKRLLDQIVE | -0.006 ± 0.027
RSVMTEEYKVPDGMVGFIIGRGGEQISRIQQESGCKIQIAPDSGGLPERSCMLTGNPESVQSAKRLLDQIVE | -0.03 ± 0.044
RSVMTEEYKVPDGMVGFIIGRGGEQISRIQQESGCKIQIAPDSGGLPERSCMLTGVPESVQSAKRLLDQIVE | -0.04 ± 0.026
RSVMTEEYKVPDGMVGFIIGRGGEQISRIQQESGCKIQIAPDSGGLPERSCMLTGIPESVQSAKRLLDQIVE | -0.079 ± 0.042
RSVMTEEYKVPDGMVGFIIGRGGEQISRIQQESGCKIQIAPDSGGLPERSCMLTGCPESVQSAKRLLDQIVE | -0.026 ± 0.037
RSVMTEEYKVPDGMVGFIIGRGGEQISRIQQESGCKIQIAPDSGGLPERSCMLTGAPESVQSAKRLLDQIVE | -0.046 ± 0.029
RSVMTEEYKVPDGMVGFIIGRGGEQISRIQQESGCKIQIAPDSGGLPERSCMLTGLPESVQSAKRLLDQIVE | -0.062 ± 0.028
RSVMTEEYKVPDGMVGFIIGRGGEQISRIQQESGCKIQIAPDSGGLPERSCMTTGTPESVQSAKRLLDQIVE | -0.923 ± 0.063
RSVMTEEYKVPDGMVGFIIGRGGEQISRIQQESGCKIQIAPDSGGLPERSCMRTGTPESVQSAKRLLDQIVE | -1.05 ± 0.043
RSVMTEEYKVPDGMVGFIIGRGGEQISRIQQESGCKIQIAPDSGGLPERSCMYTGTPESVQSAKRLLDQIVE | -1.67 ± 0.26

Variant | abundance fitness
RSVMTEEYKVPDGMVGFIIGRGGEQISRIQQESGCKIQIAPDSGGLPERSCMNTGTPESVQSAKRLLDQIVE | -1.05 ± 0.11
RSVMTEEYKVPDGMVGFIIGRGGEQISRIQQESGCKIQIAPDSGGLPERSCMKTGTPESVQSAKRLLDQIVE | -0.835 ± 0.063
RSVMTEEYKVPDGMVGFIIGRGGEQISRIQQESGCKIQIAPDSGGLPERSCMITGTPESVQSAKRLLDQIVE | 0.048 ± 0.053
RSVMTEEYKVPDGMVGFIIGRGGEQISRIQQESGCKIQIAPDSGGLPERSCMSTGTPESVQSAKRLLDQIVE | -0.899 ± 0.047
RSVMTEEYKVPDGMVGFIIGRGGEQISRIQQESGCKIQIAPDSGGLPERSCMWTGTPESVQSAKRLLDQIVE | -1.03 ± 0.054
RSVMTEEYKVPDGMVGFIIGRGGEQISRIQQESGCKIQIAPDSGGLPERSCMFTGTPESVQSAKRLLDQIVE | -0.349 ± 0.05
RSVMTEEYKVPDGMVGFIIGRGGEQISRIQQESGCKIQIAPDSGGLPERSCMPTGTPESVQSAKRLLDQIVE | -1.03 ± 0.093
RSVMTEEYKVPDGMVGFIIGRGGEQISRIQQESGCKIQIAPDSGGLPERSCMGTGTPESVQSAKRLLDQIVE | -1.1 ± 0.041
RSVMTEEYKVPDGMVGFIIGRGGEQISRIQQESGCKIQIAPDSGGLPERSCMMTGTPESVQSAKRLLDQIVE | -0.095 ± 0.035
RSVMTEEYKVPDGMVGFIIGRGGEQISRIQQESGCKIQIAPDSGGLPERSCMQTGTPESVQSAKRLLDQIVE | -1.1 ± 0.091
RSVMTEEYKVPDGMVGFIIGRGGEQISRIQQESGCKIQIAPDSGGLPERSCMVTGTPESVQSAKRLLDQIVE | -0.132 ± 0.028
RSVMTEEYKVPDGMVGFIIGRGGEQISRIQQESGCKIQIAPDSGGLPERSCMHTGTPESVQSAKRLLDQIVE | -0.99 ± 0.13
RSVMTEEYKVPDGMVGFIIGRGGEQISRIQQESGCKIQIAPDSGGLPERSCMLPGTPESVQSAKRLLDQIVE | -1.23 ± 0.083
RSVMTEEYKVPDGMVGFIIGRGGEQISRIQQESGCKIQIAPDSGGLPERSCMLCGTPESVQSAKRLLDQIVE | -0.085 ± 0.045
RSVMTEEYKVPDGMVGFIIGRGGEQISRIQQESGCKIQIAPDSGGLPERSCMLHGTPESVQSAKRLLDQIVE | -0.056 ± 0.049
RSVMTEEYKVPDGMVGFIIGRGGEQISRIQQESGCKIQIAPDSGGLPERSCMLLGTPESVQSAKRLLDQIVE | -0.087 ± 0.029
RSVMTEEYKVPDGMVGFIIGRGGEQISRIQQESGCKIQIAPDSGGLPERSCMLYGTPESVQSAKRLLDQIVE | -0.046 ± 0.056
RSVMTEEYKVPDGMVGFIIGRGGEQISRIQQESGCKIQIAPDSGGLPERSCMLQGTPESVQSAKRLLDQIVE | -0.067 ± 0.043
